This is an account of results in publication doi:10.1101/2024.02.22.581535.

The target in this assay is Bio-His-FIKK13 (P. falciparum). Nature of the assay: SPR.

By Kd is commonly meant the free concentration of one partner at which half of the binding sites on the other are occupied at equilibrium, for simple one-to-one binding. The low end stands for tighter binding, the high end for weaker binding. The molecule YPLRFLSKYHCG [FIKK13_4] gave a Kd of 17 nM.
